Results published in patent publication US20250064956A1, “METHODS FOR TREATING MUSCLE INVASIVE UROTHELIAL CANCER OR MUSCLE INVASIVE BLADDER CANCER WITH ANTIBODY DRUG CONJUGATES (ADC) THAT BIND TO 191P4D12 PROTEINS” (AGENSYS, INC., priority 2022, published 2025).

Key:
[1] = tested on: patients with T2 T3bN0M0 MIBC; conditions: cited from earlier work
[2] = tested on: cisplatin-ineligible patients with T2 T4N0M0 MIBC; conditions: cited from earlier work
[3] = tested on: patients receiving enfortumab vedotin; experiment: Reports of severe cutaneous adverse reactions in patients receiving enfortumab vedotin; type: in vivo, human
Description: These reactions occurred predominantly during the first cycle of treatment. AEs reported in these cases included Stevens-Johnson Syndrome (SJS) (5 cases), blister (3 cases), dermatitis bullous (3 cases), symmetrical drug-related intertriginous and flexural exanthema (SDRIFE; 2 cases), and 1 case each of dermatitis exfoliative, exfoliative rash, epidermal necrosis, oropharyngeal blistering, stomatitis, and toxic epidermal necrolysis (TEN).

[4] = tested on: urothelial carcinoma subjects; experiment: Enfortumab vedotin monotherapy studies of urothelial carcinoma, SAEs of severe cutaneous adverse reactions; type: in vivo, human
[5] = tested on: acute myeloid leukemia (AML) at relapse; conditions: administered alone; cited from earlier work
[6] = tested on: cisplatin-ineligible patients with muscle invasive bladder cancer (MIBC); experiment: Phase 1b/2 study (Cohort H): neoadjuvant EV monotherapy followed by RC+PLND, antitumor activity (pCR, pDS, EFS); type: in vivo, human
Description: Treatment with enfortumab vedotin monotherapy is evaluated in patients with MIBC. This study enrolls approximately 20 patients with cT2-T4aN0M0 MIBC.
pCR is the primary endpoint and is defined as the absence of viable tumor (pT0N0) in examined tissue from RC+PLND. pCR is assessed by central pathology review after RC+PLND with curative intent. Post-RC restaging is performed via the same radiologic modalities at the first follow-up disease assessment scan (12 weeks after RC+PLND). During the first 2 years on study, follow-up is performed every 12 weeks (±14 days) from RC+PLND until disease progression/recurrence, patient death study closure, or withdrawal of consent, whichever occurs first. After 2 years on study, the frequency of visits including response assessments is reduced to every 24 weeks (±14 days). Tumor imaging should also be performed whenever disease progression is suspected.
Radiographic disease progression precluding a curative intent surgery noted prior to RC+PLND, failure to undergo RC+PLND for patients with residual muscle invasive disease and/or any radiographic disease present, gross residual disease left behind at time of RC+PLND, local or distant recurrence post-RC as assessed radiographically and/or confirmed with biopsy (local pathology review), or death from any cause are considered EFS events. Patients who are found to have EFS events but are still alive are to transition into long-term follow-up.
Tumor tissue samples collected from the patient's diagnostic TURBT within 90 days prior to the first dose of study treatment are sent for central pathology review. Tissue samples from RC+PLND will also be sent for central pathology review of pathologic response assessment. Tumor response is assessed after RC+PLND with curative intent by pathology review analysis. Pathologic staging information includes TNM classification, histology, lymph node counts, and surgical margins.
The pCRR is defined as the proportion of patients having pCR. pCR is defined as the absence of viable tumor (pT0N0) in examined tissue from RC+PLND.
pDSR is defined as the proportion of patients having pDS. pDS is defined as patients with <pT2 (includes pT0, pTis, pTa, pT1) and N0 in examined tissue from RC+PLND.
EFS is defined as the time from the start of study treatment to the first occurrence of any of the following events: • Radiographic disease progression precluding a curative intent surgery prior to RC+PLND • Failure to undergo RC+PLND for participants with residual muscle-invasive disease and/or any radiographic disease present • Gross residual disease left behind at time of RC+PLND (surgeon unable to complete curative intent surgery due to unresectable tumor or newly discovered metastatic disease) • Local or distant recurrence post-RC as assessed by CT or MRI and/or biopsy. If biopsy is not feasible due to participant safety, CT/MRI alone is sufficient • Death from any cause
Patients who refuse surgery but without a post-screening scan are censored at study day 1.
(§1) The methods for this Section 6.2 (Example 2) were as described in Section 6.1 (Example 1). […] Patients received 3 cycles of neoadjuvant EV (1.25 mg/kg) on Days 1 and 8 of every 3-week cycle prior to RC+PLND. The primary endpoint of the study was pathological complete response rate (pCRR; ypT0N0) by central review. Key secondary endpoints included pathological downstaging (pDS) rate (yp T0, Tis, Ta, T1,N0) and safety.

[7] = tested on: cisplatin-ineligible patients with muscle invasive bladder cancer (MIBC); experiment: Phase 1b/2 study (Cohort H): safety, tolerability, exposure and disposition with neoadjuvant EV monotherapy and RC+PLND; type: in vivo, human
Description: Safety assessments are based on the information collected through the safety surveillance process and will include the data from recorded AEs, including serious adverse events (SAEs), concomitant medications, physical examination findings, cardiac monitoring, and laboratory tests. Safety is monitored over the course of the study by the SMC.
The safety analysis evaluates the type, incidence, severity, seriousness, and relatedness of AEs, and the type, incidence, and severity of laboratory abnormalities. The incidence, duration, and resolution of AEs of special interest (AESIs) are summarized.
The assessment of safety during the course of this study will consist of the surveillance and recording of AEs including SAEs, recording of concomitant medication, and measurements of protocol-specified physical examination findings, cardiac monitoring, and laboratory tests.
AE severity should be graded using the National Cancer Institute's Common Terminology Criteria for Adverse Events (NCI CTCAE), Version 4.03.
An overview of AEs provide a tabulation, by cohort and overall, of the incidence of all AEs, TEAEs, treatment-related AEs, Grade 3 and higher AEs, SAEs, treatment-related SAEs, deaths, and AEs leading to study treatment discontinuation. AEs are defined as treatment emergent if they are newly occurring or worsen following study treatment.
AEs are listed and summarized by Medical Dictionary for Regulatory Activities (MedDRA), preferred term, severity, and relationship to study drug. In the event of multiple occurrences of the same AE with the same preferred term in 1 patient, the AE are counted once as the occurrence. The incidence of AEs are tabulated by preferred term and cohorts. AEs leading to premature discontinuation of study drug are summarized and listed in the same manner.
as §1

[8] = 2 cycles of 1200 mg prior to RC, 69 patients
[9] = 2 cycles of 1200 mg prior to RC
[10] = EFS by investigator assessment, EV Mono N = 22
[11] = Present study, cisplatin ineligible, EV monotherapy x 3 cycles, sample size 22
[12] = by investigator assessment, N = 22

## pembrolizumab
[1]; 3 cycles of 200 mg before RC, among 50 treated patients
  pCR rate: 42%
[1]; 3 cycles of 200 mg before RC
  pCR rate in patients with PD L1 positive disease: 54.3%
  pathologic downstaging rate: 65.7%
  safety of neoadjuvant administration: safely administered
[1]; PURE-01, Pembrolizumab x 3, sample size 50
  pDS (non-muscle invasive disease at surgery), includes pCR: 54% (includes
[1]; PURE-01, cisplatin eligible (n = 42) and ineligible (n = 8), Pembrolizumab x 3, sample size 50
  PCR (no viable tumor at surgery): 42%

## atezolizumab
[2]; [8]
  pCR, patients: 29%
  safety findings: no significant safety findings
[2]; [9]
  pCR, PD-L1-negative cohort: 16%
  pCR, patients with PD-L1-positive disease: 40%
  patients down staged to non-muscle invasive disease: 39%
[2]; ABACUS, cisplatin ineligible, Atezolizumab x 2, sample size 88
  PCR (no viable tumor at surgery), ypT0 + ypTis: 31% (ypT0 +

## enfortumab vedotin
[3]; 15 patients
  severe cutaneous adverse reaction reports: SDRIFE: 2 cases
  severe cutaneous adverse reaction reports: Stevens-Johnson Syndrome (SJS): 5 cases
  severe cutaneous adverse reaction reports: blister: 3 cases
  severe cutaneous adverse reaction reports: dermatitis bullous: 3 cases
  severe cutaneous adverse reaction reports: dermatitis exfoliative: 1 case
  severe cutaneous adverse reaction reports: epidermal necrosis: 1 case
  severe cutaneous adverse reaction reports: exfoliative rash: 1 case
  severe cutaneous adverse reaction reports: oropharyngeal blistering: 1 case
  severe cutaneous adverse reaction reports: stomatitis: 1 case
  severe cutaneous adverse reaction reports: toxic epidermal necrolysis (TEN): 1 case
[3]; some had fatal outcomes, predominantly during the first cycle
  patients with reports of severe cutaneous adverse reactions: 15 patients
[4]; 749 subjects
  SAE of severe cutaneous adverse reaction: SJS: 0.1%
  SAE of severe cutaneous adverse reaction: blister: 0.1%
  SAE of severe cutaneous adverse reaction: conjunctivitis: 0.1%
  SAE of severe cutaneous adverse reaction: dermatitis bullous: 0.4%
  SAE of severe cutaneous adverse reaction: drug eruption: 0.4%
  SAE of severe cutaneous adverse reaction: stomatitis: 0.1%
  SAE of severe cutaneous adverse reaction: toxic skin eruption: 0.1%
  SAEs of severe cutaneous adverse reactions: 1.5%
[4]; of 749 subjects, EV monotherapy studies of urothelial carcinoma
  SAEs of severe cutaneous adverse reactions: 11 subjects

## CT-011
[5]
  response in treating acute myeloid leukemia (AML) at relapse: failed to show response

## enfortumab vedotin [EV Mono]
[6]; 3 cycles neoadjuvant EV 1.25 mg/kg Days 1 and 8 of 3-week cycle, preliminary analysis of 22 patients
  pathological complete response (pCR), patients: 36%
[6]; [10]
  Number of subjects who have recurrence or died: 5
  Subjects who have recurrence or died, figure in parentheses (share of N = 22): (22.7)
[6]; [11]
  PCR (no viable tumor at surgery), ypT0 and ypTis: 45.5% (ypT0
  PCR (no viable tumor at surgery), ypT0 only: 32% (ypT0
  pDS (non-muscle invasive disease at surgery), includes pCR: 50% (includes
[6]; [12]
  EFS Rate at 6 months: 88.2%
  Event free-survival (EFS), 25th percentile: 6.7, — months
  Event free-survival (EFS), median: not reached
  Event free-survival (EFS), observed min: 2.60 months
[6]; by investigator assessment, N = 22, + printed after value
  Event free-survival (EFS), observed max: ≥ 12.32 months
[6]; by investigator assessment, N = 22, one subject censored at study day 190 due to a data issue
  EFS Rate at 12 months: 60.5%
[6]; cisplatin-ineligible MIBC patients, neoadjuvant EV
  pCRR compared with rates seen with chemotherapy in cisplatin-eligible MIUC patients: compares favorably
[7]; EV Mono N = 22
  AECI Any infusion related reactions, ≥Grade 3: 0 n
  AECI Any ocular disorder: Blurred vision, ≥Grade 3: 0 n
  AECI Any ocular disorder: Corneal disorders, Any Grade: 0 n
  AECI Any ocular disorder: Corneal disorders, ≥Grade 3: 0 n
  AECI Any ocular disorder: Dry eye, ≥Grade 3: 0 n
  AECI Any peripheral neuropathy, ≥Grade 3: 0 n
  Any TEAEs leading to bladder surgery not performed: 0 n
  EV-related TEAEs leading to bladder surgery not performed: 0 n
  EV-related TEAEs leading to death: 0 n
  RC-related TEAEs leading to death: 0 n
[7]; EV Mono N = 22, listed as EV
  TEAE (Table 27) Hyperglycaemia: 13.6%
  TEAE (Table 27) Small intestinal obstruction: 9.1%
  TEAE (Table 27) Urinary tract infection: 9.1%
[7]; EV monotherapy and RC+PLND
  patients with Grade 3 or higher TEAEs: 59.1%
[7]; cisplatin-ineligible MIBC patients
  tolerability of 3 cycles of neoadjuvant treatment: well-tolerated
[7]; in vivo
  Grade 5 AE Acute Kidney Injury: Days from RC + PLND: 62 days
  Grade 5 AE Acute Kidney Injury: Days from last dose of EV: 142 days
  Grade 5 AE Cardiac Arrest: Days from RC + PLND: 15 days
  Grade 5 AE Cardiac Arrest: Days from last dose of EV: 45 days
  Grade 5 AE Saddle PE: Days from RC + PLND: 55 days
  Grade 5 AE Saddle PE: Days from last dose of EV: 127 days
  patients whose grade 5 AEs occurred >30 days after the end of study treatment: 2 pts
  patients with grade 5 adverse events while on the study: 3 patients
[7]; patients in this study
  observed safety profile of neoadjuvant EV monotherapy: consistent with the known safety profile of EV
[7]; subject completed Cycle 2, Gr3
  Rash maculo-papular leading to EV discontinuation: AE onset after last EV dose: ^cSubject completed Cycle 2. AE onset occurred 4 days after last EV dose. (Gr3)
